Experimental data published in patent publication US7351553B2, “BK beta subunits of Slo family potassium channels” (Icagen, Inc., priority 1999, dated 2008).

Columns and labels:
Slo-1/BKB3 = target: T1, Slo-1/BKB3 (Homo sapiens, UniProt Q12791); assay: Whole-cell voltage-clamp of membrane currents in HEK293 cells co-expressing Slo-1 and BK beta 3; assay type: cell-based; conditions: for sensitivity (block) of membrane currents: CTX 100 nM
T1 construct: expressed in transfected cells; host or cells: HEK293
T1 sequence (Q12791 whole entry): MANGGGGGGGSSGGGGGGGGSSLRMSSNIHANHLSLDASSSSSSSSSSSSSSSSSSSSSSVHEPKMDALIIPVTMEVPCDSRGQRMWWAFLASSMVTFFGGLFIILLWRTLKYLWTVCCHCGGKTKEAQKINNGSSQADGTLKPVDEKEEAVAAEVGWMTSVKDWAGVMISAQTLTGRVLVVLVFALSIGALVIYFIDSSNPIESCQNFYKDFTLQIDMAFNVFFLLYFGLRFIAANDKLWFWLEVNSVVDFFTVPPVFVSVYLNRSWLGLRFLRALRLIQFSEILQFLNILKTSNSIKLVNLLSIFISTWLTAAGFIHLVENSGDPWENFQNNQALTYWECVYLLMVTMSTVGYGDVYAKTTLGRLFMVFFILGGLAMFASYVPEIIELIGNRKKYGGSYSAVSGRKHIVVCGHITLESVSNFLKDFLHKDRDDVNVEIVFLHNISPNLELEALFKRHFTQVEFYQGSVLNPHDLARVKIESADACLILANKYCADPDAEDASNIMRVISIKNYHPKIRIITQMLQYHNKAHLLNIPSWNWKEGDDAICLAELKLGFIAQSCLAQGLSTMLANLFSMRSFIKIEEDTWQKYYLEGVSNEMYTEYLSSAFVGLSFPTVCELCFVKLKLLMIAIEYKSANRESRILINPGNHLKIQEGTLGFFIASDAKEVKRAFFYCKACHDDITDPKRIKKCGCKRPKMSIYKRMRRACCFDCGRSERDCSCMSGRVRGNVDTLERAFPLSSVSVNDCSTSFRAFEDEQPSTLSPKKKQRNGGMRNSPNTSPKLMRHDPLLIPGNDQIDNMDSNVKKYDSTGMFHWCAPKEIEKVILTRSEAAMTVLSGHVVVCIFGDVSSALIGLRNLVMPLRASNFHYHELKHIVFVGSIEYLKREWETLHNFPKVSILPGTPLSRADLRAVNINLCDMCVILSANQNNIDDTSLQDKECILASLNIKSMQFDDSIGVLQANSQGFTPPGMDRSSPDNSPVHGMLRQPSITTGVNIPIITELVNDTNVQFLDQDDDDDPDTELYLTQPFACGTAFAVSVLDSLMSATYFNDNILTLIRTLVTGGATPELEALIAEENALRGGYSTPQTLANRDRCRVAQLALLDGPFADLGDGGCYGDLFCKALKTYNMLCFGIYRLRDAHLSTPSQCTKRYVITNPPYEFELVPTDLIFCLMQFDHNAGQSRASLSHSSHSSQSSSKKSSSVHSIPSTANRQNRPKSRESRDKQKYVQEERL
T1 sequence (Q86W47 whole entry partner): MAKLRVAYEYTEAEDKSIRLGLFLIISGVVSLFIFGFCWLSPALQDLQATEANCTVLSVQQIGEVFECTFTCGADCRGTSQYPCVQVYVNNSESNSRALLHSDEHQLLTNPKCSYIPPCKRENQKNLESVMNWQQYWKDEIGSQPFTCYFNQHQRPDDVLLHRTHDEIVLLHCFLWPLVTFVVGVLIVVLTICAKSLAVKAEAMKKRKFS
Protocol: (§1) FIG. 6. Slo-1/BKB3 forms BK type II-like charybdotoxin-(CTX) insensitive channels. Slo-1 (A) or Slo-1+BK beta 3 (B) were expressed in HEK293 cells and membrane currents measured using the whole-cell voltage-clamp technique. […]. In contrast, membrane currents in cells co-expressing Slo-1 and BK beta 3 were TEA (5 mM) sensitive but CTX (100 nM) insensitive (FIG. 6B). Similar recordings were made from 4 cells expressing Slo-1 alone and 6 cells co-expressing Slo-1/BKB3. Scale bars represent InA and 200 ms.

Slo-1 = target: T2, Slo-1 (Homo sapiens, UniProt Q12791); assay: Whole-cell voltage-clamp of membrane currents in HEK293 cells expressing Slo-1 alone; assay type: cell-based; conditions: 250 ms depolarizing steps from holding potential -80 mV; for inhibition (block) of membrane currents: CTX 100 nM
T2 construct: expressed in transfected cells; host or cells: HEK293
T2 sequence (Q12791 whole entry): as the sequence (Q12791 whole entry) above
Protocol: as §1

Compound | sensitivity of membrane currents (Slo-1/BKB3; TEA 5 mM) | inhibition of membrane currents (Slo-1; TEA 5 mM) | sensitivity (block) of membrane currents (Slo-1/BKB3) | sensitivity (block) of membrane currents (Slo-1/BKB3; listed as charybdotoxin) | inhibition (block) of membrane currents (Slo-1) | inhibition (block) of membrane currents (Slo-1; listed as charybdotoxin)
CC[N+](CC)(CC)CC [TEA] | sensitive | strongly inhibited | – | – | – | –
charybdotoxin [CTX] | – | – | insensitive | virtually unblocked | strongly inhibited | almost completely blocked
